In paper PMC11340043:

Target: human LIFR-his (human) (UniProt P42702)
Sequence (P42702 45-833): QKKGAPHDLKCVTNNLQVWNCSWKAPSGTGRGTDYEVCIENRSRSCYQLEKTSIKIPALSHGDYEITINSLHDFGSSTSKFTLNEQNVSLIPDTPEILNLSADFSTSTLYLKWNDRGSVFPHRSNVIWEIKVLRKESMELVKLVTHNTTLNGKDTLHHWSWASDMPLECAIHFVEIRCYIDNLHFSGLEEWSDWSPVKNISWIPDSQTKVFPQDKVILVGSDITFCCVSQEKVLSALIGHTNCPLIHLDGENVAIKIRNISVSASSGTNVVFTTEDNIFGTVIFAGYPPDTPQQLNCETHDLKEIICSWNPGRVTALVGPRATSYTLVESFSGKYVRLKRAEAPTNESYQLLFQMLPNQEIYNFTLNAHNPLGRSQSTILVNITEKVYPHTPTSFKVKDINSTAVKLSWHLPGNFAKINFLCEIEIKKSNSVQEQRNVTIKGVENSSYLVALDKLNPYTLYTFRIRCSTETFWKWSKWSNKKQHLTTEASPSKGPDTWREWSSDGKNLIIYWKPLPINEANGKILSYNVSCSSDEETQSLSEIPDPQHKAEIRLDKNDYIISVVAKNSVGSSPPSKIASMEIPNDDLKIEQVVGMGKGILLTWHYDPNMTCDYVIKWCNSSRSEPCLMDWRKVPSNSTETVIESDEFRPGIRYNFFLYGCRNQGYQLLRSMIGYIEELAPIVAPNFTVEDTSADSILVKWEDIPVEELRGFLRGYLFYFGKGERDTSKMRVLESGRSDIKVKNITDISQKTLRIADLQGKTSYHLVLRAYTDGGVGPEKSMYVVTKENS

human LIF, sequence (P15018 23-202): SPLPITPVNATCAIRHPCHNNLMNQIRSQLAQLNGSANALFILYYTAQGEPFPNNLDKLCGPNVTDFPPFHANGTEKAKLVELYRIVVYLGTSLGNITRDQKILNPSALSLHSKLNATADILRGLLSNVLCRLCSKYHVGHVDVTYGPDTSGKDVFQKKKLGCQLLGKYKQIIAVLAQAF

With “human LIF (from UniProt P15018 23-202) (ligand)” the LIF-induced p-STAT3 (Tyr705) in U266 and HCT116 cells, western blot; dose-dependent inhibition by antibody 1G11, inhibition rate at 2 µg/ml 1G11 was > 90%.
